Where a chain is given by its changes, count along the chain named. Numbers in names are those of the source.
T1: human tissue factor pathway inhibitor (TFPI) (human, UniProt P10646 29-304, limits assumed)
T1 construct: bought; also called hTFPI; human TFPI
T1 sequence (looked up): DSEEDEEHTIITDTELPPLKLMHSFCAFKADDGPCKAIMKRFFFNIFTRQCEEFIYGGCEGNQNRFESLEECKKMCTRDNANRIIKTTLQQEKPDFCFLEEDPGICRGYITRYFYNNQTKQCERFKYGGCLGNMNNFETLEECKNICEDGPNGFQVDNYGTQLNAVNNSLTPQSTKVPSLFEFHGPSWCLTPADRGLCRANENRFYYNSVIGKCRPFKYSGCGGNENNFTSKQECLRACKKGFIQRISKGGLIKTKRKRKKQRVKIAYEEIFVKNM

T2: mouse tissue factor pathway inhibitor (TFPI) (mouse, UniProt O54819 29-289, limits assumed)
T2 construct: bought; also called mTFPI; murine TFPI
T2 sequence (looked up): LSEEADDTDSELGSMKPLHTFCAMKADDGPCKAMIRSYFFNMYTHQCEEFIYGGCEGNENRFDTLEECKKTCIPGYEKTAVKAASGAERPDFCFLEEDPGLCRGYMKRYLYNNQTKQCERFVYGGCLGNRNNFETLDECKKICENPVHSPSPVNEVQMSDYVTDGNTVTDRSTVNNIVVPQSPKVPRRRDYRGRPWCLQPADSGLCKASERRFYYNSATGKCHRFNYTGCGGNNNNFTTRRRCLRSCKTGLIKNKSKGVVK

B1: 2A8 HC S35D+S55G+K99L/LC Y48F+D91L+V96W (Fab, V domains shown)
VH: QVQLVESGGGLVQPGGSLRLSCAASGFTFRSYGMDWVRQAPGKGLEWVSSIRGSGSSTYYADSVKGRFTISRDNSKNTLYLQMNSLRAEDTAVYYCARLYRYWFDYWGQGTLVTVSS
VL: DIELTQPPSVSVAPGQTARISCSGDNLRNYYAHWYQQKPGQAPVVVIFYDNNRPSGIPERFSGSNSGNTATLTISGTQAEDEADYYCQSWLDGVPWFGGGTKLTVLG
B2: 2A8 HC Q1E+R30S+S35D+S55R+S56G+K99L/LC D1S+I2Y+A13S+S21T+R28P+Y48F+N51V+E80M+S89A+D91W+D92S+G93S+V94T (Fab, V domains shown)
VH: B1 VH with Q1E, R30S, G55R, S56G
VL: SYELTQPPSVSVSPGQTARITCSGDNLPNYYAHWYQQKPGQAPVVVIFYDVNRPSGIPERFSGSNSGNTATLTISGTQAMDEADYYCQAWWSSTPVFGGGTKLTVLG
B3: 2A8 HC Q1E+S31V+S50A+I51D+S55R+S56G+K99V/LC D1S+I2Y+A13S+S21T+R28P+N29K+Y48F+E80M+D91L+D92S+V94T+V96W (Fab, V domains shown)
VH: B1 VH with Q1E, S31V, D35S, S50A, I51D, G55R, S56G, L99V
VL: B2 VL with N29K, V51N, A89S, W91L, S93G, V96W
B4: 2A8 HC S31V+I51D+S55R+K99V/LC D1S+I2Y+A13S+S21T+R28P+N29K+Y48F+Y49R+N51S+E80M+D91L+D92S+V94T+V96W (Fab, V domains shown)
VH: B1 VH with S31V, D35S, I51D, G55R, L99V
VL: B2 VL with N29K, Y49R, V51S, A89S, W91L, S93G, V96W
B5: 2A8 HC Q1E+R30S+S35D+S55R+S56G+K99L/LC D1S+I2Y+A13S+S21T+R28P+Y48F+N51V+E80M+D91W (Fab, V domains shown)
VH: B1 VH with Q1E, R30S, G55R, S56G
VL: B2 VL with A89S, S92D, S93G, T94V
B6: 2A8 HC S35D+S55R+K99L/LC D1S+I2Y+A13S+S21T+R28P+N29K+Y48F+N51V+E80M+S89A+D91W+D92S+G93S+V94T (Fab, V domains shown)
VH: B1 VH with G55R
VL: B2 VL with N29K
B7: 2A8 HC Q1E+S31V+S50A+I51D+S55R+S56G+K99V/LC D1S+I2Y+A13S+S21T+R28P+N29K+Y48F+N51S+E80M+D91L+D92S+V94T+V96W (Fab, V domains shown)
VH: B1 VH with Q1E, S31V, D35S, S50A, I51D, G55R, S56G, L99V
VL: B2 VL with N29K, V51S, A89S, W91L, S93G, V96W
B8: 2A8 HC S31V+I51D+S55R+K99V/LC D1S+I2Y+A13S+S21T+R28P+N29K+Y48F+E80M+D91L+D92S+V94T+V96W (Fab, V domains shown)
VH: B1 VH with S31V, D35S, I51D, G55R, L99V
VL: B2 VL with N29K, V51N, A89S, W91L, S93G, V96W
B9: 2A8 HC Q1E+R30S+S35D+S55R+S56G+K99L/LC D1S+I2Y+A13S+S21T+R28P+N29K+Y48F+N51V+E80M+D91W (Fab, V domains shown)
VH: B1 VH with Q1E, R30S, G55R, S56G
VL: B2 VL with N29K, A89S, S92D, S93G, T94V
B10: 2A8 HC S35D+S55R+K99L/LC D1S+Y48F+N51V+D91W (Fab, V domains shown)
VH: B1 VH with G55R
VL: B1 VL with D1S, N51V, L91W, W96V
B11: 2A8 HC S35D+S55R+K99L/LC Y48F+N51V+S89A+D91W+D92S+G93S+V94T+P95A (Fab, V domains shown)
VH: B1 VH with G55R
VL: B2 VL with S1D, Y2I, S13A, T21S, P28R, M80E, P95A
B12: 2A8 HC S35D+S55R+K99L/LC Y48F+N51V+S89A+D91W (Fab, V domains shown)
VH: B1 VH with G55R
VL: B1 VL with N51V, S89A, L91W, W96V
B13: 2A8 HC S35D+S55R+K99L/LC A13S+Y48F+N51V+D91W (Fab, V domains shown)
VH: B1 VH with G55R
VL: B1 VL with A13S, N51V, L91W, W96V
B14: 2A8 HC S35L+S54F+K99V/LC Y48F+D91K (Fab, V domains shown)
VH: B1 VH with D35L, S54F, G55S, L99V
VL: B1 VL with L91K, W96V
B15: 2A8 HC S35D+S55R+K99L/LC R28P+Y48F+N51V+D91W (Fab, V domains shown)
VH: B1 VH with G55R
VL: B1 VL with R28P, N51V, L91W, W96V
B16: 2A8 HC S35D+S55R+K99L/LC Y48F+N51V+D91W+V94T (Fab, V domains shown)
VH: B1 VH with G55R
VL: B1 VL with N51V, L91W, V94T, W96V
B17: 2A8 HC S35D+S55R+K99L/LC Y48F+N51V+D91W+G93S (Fab, V domains shown)
VH: B1 VH with G55R
VL: B1 VL with N51V, L91W, G93S, W96V
B18: 2A8 HC S35D+S55R+K99L/LC Y48F+N51V+D91W+P95V (Fab, V domains shown)
VH: B1 VH with G55R
VL: B1 VL with N51V, L91W, P95V, W96V
B19: 2A8 HC S35D+S55R+S56G+K99L/LC Y48F+N51V+D91W (Fab, V domains shown)
VH: B1 VH with G55R, S56G
VL: B1 VL with N51V, L91W, W96V
B20: 2A8 HC S35D+S55R+K99L/LC Y48F+N51V+E80M+D91W (Fab, V domains shown)
VH: B1 VH with G55R
VL: B1 VL with N51V, E80M, L91W, W96V
B21: 2A8 HC S35D+S55R+K99L/LC S21T+Y48F+N51V+D91W (Fab, V domains shown)
VH: B1 VH with G55R
VL: B1 VL with S21T, N51V, L91W, W96V
B22: 2A8 HC S35D+S56G+K99L/LC Y48F+D91L+V96W (Fab, V domains shown)
VH: B1 VH with G55S, S56G
VL: B1 VL
B23: 2A8 HC S35D+S55R+K99L/LC N29K+Y48F+N51V+D91W (Fab, V domains shown)
VH: B1 VH with G55R
VL: B1 VL with N29K, N51V, L91W, W96V
B24: 2A8 HC S35D+S55R+K99L/LC H33Y+Y48F+N51V+D91W (Fab, V domains shown)
VH: B1 VH with G55R
VL: B1 VL with H33Y, N51V, L91W, W96V
B25: 2A8 HC S35D+S55R+K99L/LC I2Y+Y48F+N51V+D91W (Fab, V domains shown)
VH: B1 VH with G55R
VL: B1 VL with I2Y, N51V, L91W, W96V
B26: 2A8 HC S35D+S55R+K99L/LC Y48F+N51V+D91W+D92S (Fab, V domains shown)
VH: B1 VH with G55R
VL: B1 VL with N51V, L91W, D92S, W96V
B27: 2A8 HC S35D+S55R+K99L/LC N26A+Y48F+N51V+D91W (Fab, V domains shown)
VH: B1 VH with G55R
VL: B1 VL with N26A, N51V, L91W, W96V
B28: 4B7 HC_D62I (Fab, V domains shown)
VH: QVQLQQSGPGLVKPSQTLSLTCAISGDSVSSNSAAWSWIRQSPGRGLEWLGIIYKRSKWYNIYAVSVKSRITINPDTSKNQFSLQLNSVTPEDTAVYYCARWHSDKHWGFDYWGQGTLVTVSS
VL: DIVMTQSPLSLPVTPGEPASISCRSSQSLVFSDGNTYLNWYLQKPGQSPQLLIYKGSNRASGVPDRFSGSGSGTDFTLKISRVEAEDVGVYYCQQYDSYPLTFGQGTKVEIKR
B29: 4B7 HC_D62L (Fab, V domains shown)
VH: B28 VH with I62L
VL: B28 VL
B30: 4B7 HC_D62N (Fab, V domains shown)
VH: B28 VH with I62N
VL: B28 VL
B31: 4B7 HC_S57R (Fab, V domains shown)
VH: B28 VH with S57R, I62D
VL: B28 VL
B32: 4B7 HC_D62V (Fab, V domains shown)
VH: B28 VH with I62V
VL: B28 VL
B33: 4B7 HC_G109A LC_D33R (Fab, V domains shown)
VH: B28 VH with I62D, G109A
VL: B28 VL with D33R
B34: 4B7 HC_D62S (Fab, V domains shown)
VH: B28 VH with I62S
VL: B28 VL
B35: 4B7 HC_D62Q (Fab, V domains shown)
VH: B28 VH with I62Q
VL: B28 VL

target: T1, human tissue factor pathway inhibitor …; assay: competitive ELISA

variant/HC_K99L	Binder
18.1 ratio	B1
18.8 ratio	B2
9.8 ratio	B3
2.2 ratio	B4
18.7 ratio	B5
21.4 ratio	B6
11.4 ratio	B7
18 ratio	B8
19.8 ratio	B9
21.9 ratio	B10
10.9 ratio	B11
18.6 ratio	B12
20.1 ratio	B13
5 ratio	B14
22 ratio	B15
22.8 ratio	B16
17 ratio	B17
15.7 ratio	B18
21.4 ratio	B19
23.1 ratio	B20
19.5 ratio	B21
17.8 ratio	B22
20 ratio	B23
14 ratio	B24
18.7 ratio	B25
23.9 ratio	B26
4.1 ratio	B27

target: T2, mouse tissue factor pathway inhibitor …; assay: competitive ELISA

variant/HC_K99L	Binder
18.2 ratio	B1
12.3 ratio	B2
5.9 ratio	B3
2.4 ratio	B4
15.1 ratio	B5
16.8 ratio	B6
7.1 ratio	B7
15.4 ratio	B8
15.5 ratio	B9
22 ratio	B10
9 ratio	B11
18.2 ratio	B12
19.9 ratio	B13
3.1 ratio	B14
23.2 ratio	B15
19.9 ratio	B16
16.5 ratio	B17
13.7 ratio	B18
18.7 ratio	B19
21.2 ratio	B20
18.8 ratio	B21
16.9 ratio	B22
18.9 ratio	B23
11.2 ratio	B24
19 ratio	B25
22.8 ratio	B26
4.1 ratio	B27

target: T1, human tissue factor pathway inhibitor …; assay: competitive ELISA; remark: another data set of the same source

variant/wild-type	Binder
9.8 ratio	B28
6.8 ratio	B29
52.3 ratio	B30
2 ratio	B31
31.9 ratio	B32
3.8 ratio	B33
29.3 ratio	B34
20.6 ratio	B35

target: T2, mouse tissue factor pathway inhibitor …; assay: equilibrium ELISA

variant/wild-type	Binder
44.4 ratio	B28
22.9 ratio	B29
146 ratio	B30
95 ratio	B32
8 ratio	B33
146 ratio	B34
142 ratio	B35
